Assay [1] concerns the target His6-tagged wild-type Mms21 (budding yeast (S. cerevisiae)) (UniProt P38632). Kind of assay: ITC. (In general: In ITC the heat of successive injections is recorded.)
The target in assay [2] is Mms21-M1, His6-tagged (budding yeast (S. cerevisiae)) (UniProt P38632). The assay can be described thus: pull-down.
For assay [3], the target named is T1, Mms21, full length (crystallised complex) (budding yeast (S. cerevisiae), UniProt P38632 1-267).
T1 sequence (looked up): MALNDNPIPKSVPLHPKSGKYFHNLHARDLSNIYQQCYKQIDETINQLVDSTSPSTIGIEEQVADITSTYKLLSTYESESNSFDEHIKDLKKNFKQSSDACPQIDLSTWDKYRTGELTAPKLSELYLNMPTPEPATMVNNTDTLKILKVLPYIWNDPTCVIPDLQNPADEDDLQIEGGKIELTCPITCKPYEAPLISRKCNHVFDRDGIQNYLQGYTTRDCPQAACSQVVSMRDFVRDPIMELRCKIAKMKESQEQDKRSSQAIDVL
The assay can be described thus: crystal structure.

The target of another assay is T2, Smc5-TAF (budding yeast (S. cerevisiae), UniProt Q08204 1-1093).
T2 sequence (looked up): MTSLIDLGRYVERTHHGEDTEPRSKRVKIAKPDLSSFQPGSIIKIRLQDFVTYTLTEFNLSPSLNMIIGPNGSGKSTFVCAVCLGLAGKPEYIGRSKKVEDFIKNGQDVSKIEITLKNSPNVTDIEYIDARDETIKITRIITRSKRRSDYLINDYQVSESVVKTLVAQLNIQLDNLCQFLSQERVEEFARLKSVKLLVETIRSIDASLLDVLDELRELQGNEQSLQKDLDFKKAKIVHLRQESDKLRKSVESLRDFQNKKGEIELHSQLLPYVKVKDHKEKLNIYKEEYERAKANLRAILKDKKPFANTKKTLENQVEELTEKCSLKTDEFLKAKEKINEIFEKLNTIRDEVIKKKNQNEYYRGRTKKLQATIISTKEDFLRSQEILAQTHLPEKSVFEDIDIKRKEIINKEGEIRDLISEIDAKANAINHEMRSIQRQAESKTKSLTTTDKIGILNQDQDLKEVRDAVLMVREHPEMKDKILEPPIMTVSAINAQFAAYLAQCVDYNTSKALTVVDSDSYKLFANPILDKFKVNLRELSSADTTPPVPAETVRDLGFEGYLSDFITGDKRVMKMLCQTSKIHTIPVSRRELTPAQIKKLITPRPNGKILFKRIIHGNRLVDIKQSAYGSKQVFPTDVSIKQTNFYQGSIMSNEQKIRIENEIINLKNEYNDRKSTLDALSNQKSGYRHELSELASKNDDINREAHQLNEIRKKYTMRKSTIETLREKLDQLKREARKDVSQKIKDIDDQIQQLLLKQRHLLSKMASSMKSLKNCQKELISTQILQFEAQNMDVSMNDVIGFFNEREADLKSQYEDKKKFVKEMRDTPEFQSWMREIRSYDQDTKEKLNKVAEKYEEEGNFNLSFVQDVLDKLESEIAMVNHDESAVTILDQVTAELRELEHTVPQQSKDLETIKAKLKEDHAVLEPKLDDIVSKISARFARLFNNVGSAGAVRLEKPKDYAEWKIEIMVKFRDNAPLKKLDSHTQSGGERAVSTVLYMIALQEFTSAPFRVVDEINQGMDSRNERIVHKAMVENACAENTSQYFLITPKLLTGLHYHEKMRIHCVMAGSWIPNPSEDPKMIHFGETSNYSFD
The assay can be described thus: co-IP.

Values joined by “and” are separate entries in the source; they are usually repeats but may differ in a detail not shown here. Identical values can stand only once.

As for “GST-Smc5-arm (from UniProt Q08204 302-369; Q08204 733-813) (domain or fragment)”, the dH in assay [1] is -18.2 kcal/mol and -22 kcal/mol. The molecule also displayed a Smc5 binding, percent of wild-type (% of wild-type) in assay [2] of 84.

B1: Smc5 arm chimera (Asp302-Leu369, Gly-Ser-Gly-Ser linker, Lys733-Gln813), 6xHis-tagged (domain or fragment, budding yeast (S. cerevisiae))
chain: DKKPFANTKKTLENQVEELTEKCSLKTDEFLKAKEKINEIFEKLNTIRDEVIKKKNQNEYYRGRTKKLGSGSKREARKDVSQKIKDIDDQIQQLLLKQRHLLSKMASSMKSLKNCQKELISTQILQFEAQNMDVSMNDVIGFFNEREADLKSQ
For the molecule B1, the binding result in assay [3] is reported as “binds”.

B2: mms21-M1-3HA (natural protein, budding yeast (S. cerevisiae))
chain: MALNDNPIAKSAPAAPKSGKYFHNLHARDLSNIYQQCYKQIDETINQLVDSTSPSTIGIEEQVADITSTYKLLSTYESESNSFDEHIKDLKKNFKQSSDACPQIDLSTWDKYRTGELTAPKLSELYLNMPTPEPATMVNNTDTLKILKVLPYIWNDPTCVIPDLQNPADEDDLQIEGGKIELTCPITCKPYEAPLISRKCNHVFDRDGIQNYLQGYTTRDCPQAACSQVVSMRDFVRDPIMELRCKIAKMKESQEQDKRSSQAIDVL
On to B2, for which the “Smc5 binding, percent of wild-type” value with Smc5-TAF is 5 % of wild-type.

B3: mms21-M3-3HA (natural protein, budding yeast (S. cerevisiae))
chain: MALNDNPIPKSVPLHPKSGKYFHNLHARDLSNAAQQAYKQIDETINQLVDSTSPSTIGIEEQVADITSTYKLLSTYESESNSFDEHIKDLKKNFKQSSDACPQIDLSTWDKYRTGELTAPKLSELYLNMPTPEPATMVNNTDTLKILKVLPYIWNDPTCVIPDLQNPADEDDLQIEGGKIELTCPITCKPYEAPLISRKCNHVFDRDGIQNYLQGYTTRDCPQAACSQVVSMRDFVRDPIMELRCKIAKMKESQEQDKRSSQAIDVL
As to B3, the “Smc5 binding, percent of wild-type” value in the assay with Smc5-TAF was 30 % of wild-type.

B4: mms21-M5-3HA (natural protein, budding yeast (S. cerevisiae))
chain: MALNDNPIPKSVPLHPKSGKYFHNLHARDLSNIYQQCYKQIDETINQLVDSTSPSTIGIEEQVADITSTYKLLSTAESAANSADEHIKDLKKNFKQSSDACPQIDLSTWDKYRTGELTAPKLSELYLNMPTPEPATMVNNTDTLKILKVLPYIWNDPTCVIPDLQNPADEDDLQIEGGKIELTCPITCKPYEAPLISRKCNHVFDRDGIQNYLQGYTTRDCPQAACSQVVSMRDFVRDPIMELRCKIAKMKESQEQDKRSSQAIDVL
With B4, the “Smc5 binding, percent of wild-type” value with Smc5-TAF was 66 % of wild-type.

The values are drawn from publication PMC2993495 (Molecular cell, 2009).
